In paper doi:10.1101/2021.02.18.431817 (bioRxiv, 2021):

Experiments:
SAP3:CFP = target: T1, SAP3:CFP (A. thaliana, UniProt Q9ZNU9 1-163); assay: FRET or BRET
T1 sequence (looked up): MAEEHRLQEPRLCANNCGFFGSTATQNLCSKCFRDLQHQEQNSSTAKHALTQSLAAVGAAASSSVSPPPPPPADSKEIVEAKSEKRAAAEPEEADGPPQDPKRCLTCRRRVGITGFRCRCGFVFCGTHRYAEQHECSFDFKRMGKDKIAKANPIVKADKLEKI

SAP2:CFP = target: T2, SAP2:CFP (A. thaliana, UniProt Q8H0X0 1-173); assay: FRET or BRET
T2 sequence (looked up): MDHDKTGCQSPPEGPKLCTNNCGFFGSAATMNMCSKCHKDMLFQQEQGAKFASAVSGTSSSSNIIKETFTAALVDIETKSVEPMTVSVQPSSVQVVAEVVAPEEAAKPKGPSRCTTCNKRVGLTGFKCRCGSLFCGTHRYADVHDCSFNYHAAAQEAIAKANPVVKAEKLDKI

B1: CML49:YFP (natural protein, A. thaliana, UniProt Q8W4L0 1-335, looked up)
chain: MSGYPPSSQGYGYGGNPPPPQPPYGSTGNNPPPYGSSGSNPPPPYGSSASSPYAVPYGAQPAPYGAPPSAPYASLPGDHNKPHKEKPHGASYGSPSPGGYGAHPSSGPSDYGGYGGAPQQSGHGGGYGGAPQQSGHGGGYGAPPPQASYGSPFASLVPSAFPPGTDPNIVACFQAADRDNSGFIDDKELQGALSSYNQSFSIRTVHLLMYLFTNSNVRKIGPKEFTSLFFSLQNWRSIFERFDKDRSGRIDTNELRDALMSLGFSVSPVILDLLVSKFDKSGGRNRAIEYDNFIECCLTVKGLTEKFKEKDTALSGSAIFNYENFMLTVLPFLVA
- FRET efficiency, fold of negative control (SAP3:CFP): > 5 fold of negative control
- FRET efficiency, fold of negative control (SAP2:CFP): > 5 fold of negative control
